Biological target: RGA5 HMA domain (rice (Oryza sativa)) (UniProt F7J0N2)
Assay: SPR; Biacore […]) or 50 to 0 µM ([…]; HBS-EP+ buffer; 1:1 binding model, kinetic fit

Sequence of UniProt F7J0N2 (F7J0N2 997-1066): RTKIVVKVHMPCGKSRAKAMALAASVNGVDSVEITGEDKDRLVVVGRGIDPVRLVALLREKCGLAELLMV

“AVR-Pia (purified) (from UniProt B9WZW9 1-85) (natural protein)” gave a Kd of 26.8 µM.

— article PMC10533329
